Kd data for two molecules are collected here from article doi:10.1101/2024.02.27.582253, “Identification of an evolutionary conserved binding motif responsible for the recruitment of NMD factors to the UPF1 helicase” (bioRxiv, 2024).

This assay addresses T1, S. cerevisiae Upf1 helicase domain, Upf1-HD-His6 (residues 221-851) (S. cerevisiae, UniProt P30771 221-851).
T1 construct: Upf1 helicase domain, S. cerevisiae, residues 221-851; residues 224-851 seen in the final model; for the crystal it says only that the protein was purified on TALON resin; source: E. coli BL21 (DE3) Gold, purified (TALON, heparin, SEC); not shown: His6, C-terminal, kept
T1 sequence (looked up): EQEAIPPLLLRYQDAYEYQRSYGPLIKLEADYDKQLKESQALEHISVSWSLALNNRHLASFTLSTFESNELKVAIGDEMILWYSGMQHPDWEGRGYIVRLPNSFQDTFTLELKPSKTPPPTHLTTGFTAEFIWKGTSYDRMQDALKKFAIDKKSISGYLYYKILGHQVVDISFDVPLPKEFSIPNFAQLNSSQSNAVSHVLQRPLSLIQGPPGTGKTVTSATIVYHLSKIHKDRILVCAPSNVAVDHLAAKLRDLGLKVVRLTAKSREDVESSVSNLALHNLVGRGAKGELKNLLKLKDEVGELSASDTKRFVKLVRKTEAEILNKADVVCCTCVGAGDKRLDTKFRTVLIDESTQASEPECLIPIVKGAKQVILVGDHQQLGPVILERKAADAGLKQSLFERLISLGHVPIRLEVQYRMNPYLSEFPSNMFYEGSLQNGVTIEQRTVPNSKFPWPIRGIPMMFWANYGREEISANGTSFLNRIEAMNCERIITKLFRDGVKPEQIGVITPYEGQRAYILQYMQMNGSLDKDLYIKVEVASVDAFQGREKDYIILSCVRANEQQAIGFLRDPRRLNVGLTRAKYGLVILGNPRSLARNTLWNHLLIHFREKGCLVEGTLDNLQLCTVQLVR
Briefly: ITC; His6-ZZ-Nmd4 proteins (260 µM full-length and arm, 330 µM PIN) injected into Upf1-HD-His6 (30-35 µM); 20°C; 100 mM Bis-Tris pH 6.5, 200 mM NaCl, 5 mM MgCl2, 5 mM 2-mercaptoethanol; one-binding site model. Particulars: both partners purified.

B1: His6-ZZ-Nmd4 « arm » (residues 168-218) (domain or fragment, S. cerevisiae, UniProt Q12129 168-218, looked up)
chain: NDKSFRESEKFNNMMLKNGTKEESENGREIIRTNFNKTVYASRGTGELWSP
notes: Nmd4 C-terminal arm, S. cerevisiae, residues 168-218; also called « arm » region; source: E. coli BL21 (DE3) Gold, purified; not shown: His6, N-terminal, kept; ZZ, N-terminal, kept
As a reminder, the Kd is the concentration at which binding is half-saturated. For the molecule B1, the Kd was 1960 nM.

B2: His6-ZZ-Nmd4 full-length protein (S. cerevisiae) (natural protein, UniProt Q12129 1-218, looked up)
chain: MTQYNFIIDASAFEKGLGNIKRWCSDCTEAVTLNFYIPTFTLNELDFLQQRRKSFAARESLKFIDRLDDSKFANLKVFIEFPEVLDIILWSDVMEHNDSSGKINIAKLPKRLKNLLKSCIYKCYLEGNEGLHWFLISEDPQIREMAMQCNIPSCSIVDVDSILSKDMNDKSFRESEKFNNMMLKNGTKEESENGREIIRTNFNKTVYASRGTGELWSP
notes: also called full-length Nmd4; His6-ZZ-Nmd4-FL; source: E. coli BL21 (DE3) Gold, purified (Ni-NTA, heparin, SEC; 3C digestion omitted); not shown: His6, N-terminal, kept; ZZ, N-terminal, kept
In the case of B2, the Kd was found to be 2100 nM. This Kd and that of the molecule before are within 1.5-fold of each other.
